According to article PMC2141715:

Target: calreticulin (canine pancreas microsomes) (dog (endogenous in canine pancreas microsomes)) (UniProt P28490)
Test: co-IP

“HA glycosylation mutant Δ483 (natural protein)” gave a reduction in binding against wild-type HA of 40%.
